Measured values as given in the supplement of paper PMC10126150.
± gives the standard deviation of the averaged measurements.

Test system: ATP
Experiment: switch fluorescence ratio, 500 uM ATP over buffer (Cy3 cluster intensity, sum of 5 cycles each) (fold (ratio)); higher = stronger signal-on switching upon ATP binding; sequences stand for … in TCGTCGGCAGCGTCAGATGTGTATAAGAGACAGTTTTTTTTTTTTTTTTTTTTTTTTT…TC
Settings: aptamer strand: ATP DNA aptamer (quencher-CACCTGGGGGAGTATTGCGGAGGAAGG + anchor), 100 nM annealed; ATP concentration: 500 uM
Summary of the method: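 Switching-strand clusters labelled with Cy3 on a modified Illumina MiSeq flow-cell were annealed to 100 nM quencher-labelled ATP aptamer, imaged in selection buffer, and re-imaged after 15 min with 500 uM ATP at 22 °C. This was done over five cycles with NaOH stripping and re-annealing in between. The fluorescence ratio is summed target-cycle over summed buffer-cycle Cy3 intensity per cluster, averaged per switch-domain sequence, excluding clusters outside 100-1000 RFU.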
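Further: ATP exposure 15 min at 22 °C before imaging.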

Point of comparison: GAGGTTAGGA, switch fluorescence ratio 1 ± 0.012. Against it:
- GAGCCAGGGA — the same, 1.001 ± 0.0029
- GAGCCCAATG — within error, 1.0092 ± 0.001
- GAGCGGGGGA — higher, 1.03 ± 0.017
- GAGCGGTTTG — within error, 0.998 ± 0.017
- GAGCGTCGGA — within error, 1.03 ± 0.12
- GAGCTAGGAT — within error, 0.985 ± 0.018
- GAGCTGGCGG — higher, 1.05 ± 0.038
- GAGCTTACTT — higher, 1.104 ± 0.011
- GAGCTTCTGT — the same, 1 ± 0.04
- GAGCTTGAGT — within error, 0.984 ± 0.011
- GAGCTTTTTT — within error, 0.9986 ± 0.0034
- GAGGAAACAG — higher, 1.022 ± 0.0067
- GAGGAACCTG — higher, 1.09 ± 0.0052
- GAGGAAGGGA — within error, 1.01 ± 0.017
- GAGGAAGTTT — the same, 1 ± 0.041
- GAGGAATGAG — within error, 0.9878 ± 0.005
- GAGGAATTGG — within error, 0.979 ± 0.012
- GAGGACATGC — within error, 0.979 ± 0.11
- GAGGAGGGGG — within error, 0.986 ± 0.032
- GAGGAGGTAT — within error, 0.973 ± 0.019
- GAGGAGTGAA — within error, 0.9973 ± 0.0067
- GAGGATATAG — within error, 1.03 ± 0.061
- GAGGATATGG — within error, 0.98 ± 0.021
- GAGGATGTCT — within error, 0.99 ± 0.021
- GAGGATTAGA — within error, 0.988 ± 0.015
- GAGGATTCGG — within error, 0.986 ± 0.026
- GAGGCAGGGT — higher, 1.033 ± 0.0064
- GAGGCATCTC — within error, 1.02 ± 0.025
- GAGGCCTTGG — within error, 0.983 ± 0.04
- GAGGCGGACT — within error, 1.02 ± 0.015
- GAGGCGGATT — within error, 1.01 ± 0.026
- GAGGCTAGTG — within error, 0.988 ± 0.0092
- GAGGCTGGGG — the same, 1 ± 0.038
- GAGGGAAAAA — within error, 1.44 ± 0.88
- GAGGGAAGGT — within error, 1.02 ± 0.02
- GAGGGAAGTT — within error, 1.04 ± 0.037
- GAGGGACGGC — within error, 0.999 ± 0.059
- GAGGGAGATT — within error, 1.02 ± 0.05
- GAGGGAGCAG — within error, 1.01 ± 0.017
- GAGGGAGGCT — higher, 1.04 ± 0.015
- GAGGGAGGTC — within error, 0.968 ± 0.043
- GAGGGAGTAT — within error, 0.9959 ± 0.0027
- GAGGGATAAA — the same, 1.003 ± 0.0018
- GAGGGATCAG — within error, 0.994 ± 0.011
- GAGGGATGGT — within error, 1.01 ± 0.029
- GAGGGATTTG — the same, 1 ± 0.03
- GAGGGCACAT — within error, 1.03 ± 0.05
- GAGGGCAGGG — within error, 0.978 ± 0.034
- GAGGGCCATT — within error, 0.978 ± 0.017
- GAGGGCCGGT — within error, 1.03 ± 0.032
- GAGGGCTCTT — higher, 1.05 ± 0.029
- GAGGGGAAGG — within error, 0.958 ± 0.057
- GAGGGGACGA — within error, 0.998 ± 0.011
- GAGGGGACGG — within error, 0.996 ± 0.015
- GAGGGGAGTG — within error, 1.03 ± 0.064
- GAGGGGCATG — within error, 1.01 ± 0.032
- GAGGGGCTAA — lower, 0.9516 ± 0.0088
- GAGGGGCTTC — the same, 1 ± 0.016
- GAGGGGGAGG — within error, 0.982 ± 0.019
- GAGGGGGATT — within error, 0.991 ± 0.028
- GAGGGGGCTC — higher, 1.04 ± 0.028
- GAGGGGGGCC — within error, 1.01 ± 0.06
- GAGGGGGGTA — within error, 0.989 ± 0.02
- GAGGGGTATG — the same, 1 ± 0.019
- GAGGGGTGAG — within error, 1.01 ± 0.041
- GAGGGGTGGA — within error, 0.996 ± 0.015
- GAGGGGTGTA — within error, 0.9896 ± 0.0085
- GAGGGGTTGA — within error, 1.01 ± 0.077
- GAGGGTAGGT — within error, 1.06 ± 0.063
- GAGGGTAGTC — the same, 1.004 ± 0.007
- GAGGGTATGG — within error, 1.014 ± 0.0075
- GAGGGTCCGG — within error, 0.991 ± 0.035
- GAGGGTTAAT — within error, 1.02 ± 0.02
- GAGGGTTTTT — the same, 1 ± 0.021
- GAGGTAAGAT — within error, 1.02 ± 0.032
- GAGGTACAAA — within error, 1.013 ± 0.01
- GAGGTACGGG — within error, 0.98966 ± 0.00039
- GAGGTACTAG — higher, 1.02 ± 0.0023
- GAGGTCGCGC — within error, 1.01 ± 0.043
- GAGGTGTCG — within error, 1.04 ± 0.041
- GAGGTTAGAG — lower, 0.9796 ± 0.0026
- GAGGTTCATT — within error, 1.09 ± 0.085
- GAGGTTGATC — within error, 0.983 ± 0.056
- GAGGTTGTAG — within error, 0.994 ± 0.021
